Data taken from publication PMC12422189, “Molecular exaptation by the integrin αI domain” (Science Advances, 2025).

B1: integrin αEβ7 (as used for biolayer interferometry) (complex)
chain 1: FNVDVARPWLTPKGGAPFVLSSLLHQDPSTNQTWLLVTSPRTKRTPGPLHRCSLVQDEILCHPVEHVPIPKGRHRGVTVVRSHHGVLICIQVLVRRPHSLSSELTGTCSLLGPDLRPQAQANFFDLENLLDPDARVDTGDCYSNKEGGGEDDVNTARQRRALEKEEEEDKEEEEDEEEEEAGTEIAIILDGSGSIDPPDFQRAKDFISNMMRNFYEKCFECNFALVQYGGVIQTEFDLRDSQDVMASLARVQNITQVGSVTKTASAMQHVLDSIFTSSHGSRRKASKVMVVLTDGGIFEDPLNLTTVINSPKMQGVERFAIGVGEEFKSARTARELNLIASDPDETHAFKVTNYMALDGLLSKLRYNIISMEGTVGDALHYQLAQIGFSAQILDERQVLLGAVGAFDWSGGALLYDTRSRRGRFLNQTAAAAADAEAAQYSYLGYAVAVLHKTCSLSYIAGAPRYKHHGAVFELQKEGREASFLPVLEGEQMGSYFGSELCPVDIDMDGSTDFLLVAAPFYHVHGEEGRVYVYRLSEQDGSFSLARILSGHPGFTNARFGFAMAAMGDLSQDKLTDVAIGAPLEGFGADDGASFGSVYIYNGHWDGLSASPSQRIRASTVAPGLQYFGMSMAGGFDISGDGLADITVGTLGQAVVFRSRPVVRLKVSMAFTPSALPIGFNGVVNVRLCFEISSVTTASESGLREALLNFTLDVDVGKQRRRLQCSDVRSCLGCLREWSSGSQLCEDLLLMPTEGELCEEDCFSNASVKVSYQLQTPEGQTDHPQPILDRYTEPFAIFQLPYEKACKNKLFCVAELQLATTVSQQELVVGLTKELTLNINLTNSGEDSYMTSMALNYPRNLQLKRMQKPPSPNIQCDDPQPVASVLIMNCRIGHPVLKRSSAHVSVVWQLEENAFPNRTADITVTVTNSNERRSLANETHTLQFRHGFVAVLSKPSIMYVNTGQGLSHHKEFLFHVHGENLFGAEYQLQICVPTKLRGLQVVAVKKLTRTQASTVCTWSQERACAYSSVQHVEEWHSVSCVIASDKENVTVAAEISWDHSEELLKDVTELQILGEISFNKSLYEGLNAENHRTKITVVFLKDEKYH
chain 2: ELDAKIPSTGDATEWRNPHLSMLGSCQPAPSCQKCILSHPSCAWCKQLNFTASGEAEARRCARREELLARGCPLEELEEPRGQQEVLQDQPLSQGARGEGATQLAPQRVRVTLRPGEPQQLQVRFLRAEGYPVDLYYLMDLSYSMKDDLERVRQLGHALLVRLQEVTHSVRIGFGSFVDKTVLPFVSTVPSKLRHPCPTRLERCQSPFSFHHVLSLTGDAQAFEREVGRQSVSGNLDSPEGGFDAILQAALCQEQIGWRNVSRLLVFTSDDTFHTAGDGKLGGIFMPSDGHCHLDSNGLYSRSTEFDYPSVGQVAQALSAANIQPIFAVTSAALPVYQELSKLIPKSAVGELSEDSSNVVQLIMDAYNSLSSTVTLEHSSLPPGVHISYESQCEGPEKREGKAEDRGQCNHVRINQTVTFWVSLQATHCLPEPHLLRLRALGFSEELIVELHTLCDCNCSDTQPQAPHCSDGQGHLQCGVCSCAPGRLGRLCECSVAELSSPDLESGCRAPNGTGPLCSGKGHCQCGRCSCSGQSSGHLCECDDASCERHEGILCGGFGRCQCGVCHCHANRTGRACECSGDMDSCISPEGGLCSGHGRCKCNRCQCLDGYYGALCDQCPGCKTPCERHRDCAECGAFRTGPLATNCSTACAHTNVTLALAPILDDGWCKERTLDNQLFFFLVEDDARGTVVLRVRPQEKGADH
modifications: Wild-type αE taken for BLI: the paper assigns wild-type to the E-cadherin complex and RRtoGG (R177G/R178G) only to the Fab complex; the BLI section does not state which was used. Signal peptides …

Experiments:
[1] = biological target: integrin αLβ2 with the αL internal ligand IEGT replaced by VDGT (UniProt P20701); test: flow cytometry on cells; HEK293T cells transfected with αL variants and β2; 20 mM tris-HCl pH 7.4, 150 mM NaCl, 1 mM MgCl2 + 1 mM MnCl2; purified His-tagged ICAM-1 ectodomain at 20 μg/ml, 1 hour at 37°C; read with iFluor 647 anti-His tag antibody; percent positive cells normalized to wild type
integrin αLβ2 with the αL internal ligand IEGT replaced by VDGT, sequence (P20701 26-1170, chain 1 of 2): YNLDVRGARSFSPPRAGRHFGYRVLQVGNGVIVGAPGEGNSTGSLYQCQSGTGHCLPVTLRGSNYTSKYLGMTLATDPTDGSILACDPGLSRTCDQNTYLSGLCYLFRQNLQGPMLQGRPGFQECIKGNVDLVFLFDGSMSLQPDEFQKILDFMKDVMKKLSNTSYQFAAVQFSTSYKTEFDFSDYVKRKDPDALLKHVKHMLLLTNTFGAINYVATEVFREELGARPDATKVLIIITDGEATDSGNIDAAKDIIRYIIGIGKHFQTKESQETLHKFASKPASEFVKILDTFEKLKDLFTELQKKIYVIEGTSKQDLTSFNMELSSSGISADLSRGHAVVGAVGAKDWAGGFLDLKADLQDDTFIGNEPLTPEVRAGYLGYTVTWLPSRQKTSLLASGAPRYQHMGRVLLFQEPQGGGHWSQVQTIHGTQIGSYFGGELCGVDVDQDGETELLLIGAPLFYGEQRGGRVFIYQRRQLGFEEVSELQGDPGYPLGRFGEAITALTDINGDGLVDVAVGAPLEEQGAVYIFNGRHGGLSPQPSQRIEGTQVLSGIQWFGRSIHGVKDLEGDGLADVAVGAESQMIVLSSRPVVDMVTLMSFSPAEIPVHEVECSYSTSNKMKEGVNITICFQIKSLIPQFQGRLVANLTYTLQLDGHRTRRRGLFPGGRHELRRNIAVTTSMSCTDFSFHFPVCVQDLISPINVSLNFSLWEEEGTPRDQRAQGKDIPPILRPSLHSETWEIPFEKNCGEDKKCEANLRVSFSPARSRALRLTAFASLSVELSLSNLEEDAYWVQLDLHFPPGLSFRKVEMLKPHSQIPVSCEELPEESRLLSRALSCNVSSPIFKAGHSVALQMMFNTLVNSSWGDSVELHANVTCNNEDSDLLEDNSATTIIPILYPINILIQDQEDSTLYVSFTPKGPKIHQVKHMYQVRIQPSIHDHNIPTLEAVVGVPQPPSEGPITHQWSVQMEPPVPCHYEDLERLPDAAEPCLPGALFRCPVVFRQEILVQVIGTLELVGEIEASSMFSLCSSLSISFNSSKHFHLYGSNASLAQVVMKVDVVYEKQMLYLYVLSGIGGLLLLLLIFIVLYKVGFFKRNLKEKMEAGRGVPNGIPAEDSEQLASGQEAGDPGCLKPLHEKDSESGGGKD
integrin αLβ2 with the αL internal ligand IEGT replaced by VDGT, sequence (P05107 23-769, chain 2 of 2, further chain): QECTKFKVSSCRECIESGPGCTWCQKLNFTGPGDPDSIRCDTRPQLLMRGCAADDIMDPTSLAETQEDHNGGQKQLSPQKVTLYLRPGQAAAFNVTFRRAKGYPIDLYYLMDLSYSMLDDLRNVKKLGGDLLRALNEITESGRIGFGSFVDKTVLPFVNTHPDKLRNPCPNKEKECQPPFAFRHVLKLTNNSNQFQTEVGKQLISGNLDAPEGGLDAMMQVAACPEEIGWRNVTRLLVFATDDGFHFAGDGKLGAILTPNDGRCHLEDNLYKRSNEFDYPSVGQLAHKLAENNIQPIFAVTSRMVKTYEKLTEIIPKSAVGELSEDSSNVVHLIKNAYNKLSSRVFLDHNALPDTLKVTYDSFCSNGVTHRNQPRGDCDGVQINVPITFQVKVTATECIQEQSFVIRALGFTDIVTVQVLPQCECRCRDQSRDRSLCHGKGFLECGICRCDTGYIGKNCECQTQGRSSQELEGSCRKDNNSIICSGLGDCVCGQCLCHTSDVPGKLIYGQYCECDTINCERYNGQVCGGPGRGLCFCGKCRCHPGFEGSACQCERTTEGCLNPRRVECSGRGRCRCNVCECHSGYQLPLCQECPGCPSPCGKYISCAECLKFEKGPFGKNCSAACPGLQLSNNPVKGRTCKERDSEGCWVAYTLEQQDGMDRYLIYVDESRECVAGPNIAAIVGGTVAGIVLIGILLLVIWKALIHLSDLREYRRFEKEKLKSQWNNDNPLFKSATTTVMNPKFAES

[2] = biological target: T1, Fc-tagged E-cadherin ectodomain (UniProt P12830 155-698); test: BLI; Octet RED, 25°C; Fc-tagged E-cadherin ectodomain loaded on Protein A biosensors; αEβ7 in solution, two-fold series 500 to 16.125 nM; activating buffer with 0.1% BSA and 0.02% Tween 20; 1:1 model, global fit of three replicates; details: both partners purified
T1 construct: Fc tag amplified from Addgene plasmid 145164; E-cadherin insert a gift from B. Gumbiner; Captured on Protein A biosensors by the Fc; also called Human Fc-tagged E-cadherin ectodomain; source: ExpiCHO, secreted, purified (HiTrap Protein G, Superdex 200); not shown: Fc (human), C-terminal, kept
T1 sequence (looked up): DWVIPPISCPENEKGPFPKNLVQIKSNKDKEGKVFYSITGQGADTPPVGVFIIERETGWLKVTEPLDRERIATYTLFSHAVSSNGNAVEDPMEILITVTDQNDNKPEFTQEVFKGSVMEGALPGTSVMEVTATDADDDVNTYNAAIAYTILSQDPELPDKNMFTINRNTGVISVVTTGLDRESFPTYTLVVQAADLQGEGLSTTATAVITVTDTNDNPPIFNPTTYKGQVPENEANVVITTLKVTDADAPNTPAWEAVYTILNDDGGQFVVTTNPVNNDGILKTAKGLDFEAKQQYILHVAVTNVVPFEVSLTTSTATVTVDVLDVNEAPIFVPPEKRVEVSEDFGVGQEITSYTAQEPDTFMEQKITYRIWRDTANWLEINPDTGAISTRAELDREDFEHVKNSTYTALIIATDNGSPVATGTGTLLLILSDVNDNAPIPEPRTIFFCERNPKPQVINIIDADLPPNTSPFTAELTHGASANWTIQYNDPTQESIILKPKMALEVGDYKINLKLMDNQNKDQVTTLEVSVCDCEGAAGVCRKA

| Molecule | ligand binding, percent of wild type [1] [%] | Kd [2] [nM] |
| --- | --- | --- |
| intercellular adhesion molecule-1 (ICAM-1) ectodomain, His-tagged (from UniProt P05362 28-480) (ligand) | 60 | – |
| B1 | – | 51 ± 7.9 |
